Data set [1] concerns primary human cell cultures (11 cell types). Briefly: Custom gene array, 11 human cell types in normoxia or hypoxia for 6 hr and 18 hr.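 As to mRNA expression level, #1 HY 18 hr: cell type #1 is adipocyte from subcutaneous adult adipose tissue.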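 As to mRNA expression level, #1 HY 6 hr: cell type #1 is adipocyte from subcutaneous adult adipose tissue.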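 As to mRNA expression level, #1 NO: cell type #1 is adipocyte from subcutaneous adult adipose tissue.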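 As to mRNA expression level, #3 HY 6 hr: cell type #3 is human umbilical vein endothelial cells.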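 As to mRNA expression level, #3 NO: cell type #3 is human umbilical vein endothelial cells.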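 As to mRNA expression level, #4 HY 18 hr: cell type #4 is adult dermal fibroblast.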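 As to mRNA expression level, #4 HY 6 hr: cell type #4 is adult dermal fibroblast.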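 As to mRNA expression level, #4 NO: cell type #4 is adult dermal fibroblast.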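 As to mRNA expression level, #5 HY 6 hr: cell type #5 is adult hepatocyte.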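 As to mRNA expression level, #5 NO: cell type #5 is adult hepatocyte.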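 As to mRNA expression level, #6 HY 6 hr: cell type #6 is blood-derived macrophage.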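 As to mRNA expression level, #6 NO: cell type #6 is blood-derived macrophage.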 The format is cell-based. The note with it: for HIGHEST FOLD CHANGE IN HYPOXIA (hr hypoxia + cell type): hypoxia/normoxia induction ratio. In outline: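 Values are each gene's expression relative to its median over all cell types and conditions, after per-array normalisation to control genes and merging of replicate arrays. Cells were 11 human types, mostly unmodified primary cultures, kept in normoxia or exposed to hypoxia for 6 hr or 18 hr.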

The next data set has as its system human macrophages. Briefly: Custom gene array, macrophages with no cytokines, IL-10 or LPS + IFN, in normoxia and hypoxia. Type of data set: cell-based. The note with it: for mRNA EXPRESSION (experimental condition) #1: #1 no cytokines/normoxia; for mRNA EXPRESSION (experimental condition) #2: #2 no cytokines/hypoxia; for mRNA EXPRESSION (experimental condition) #3: #3 IL-10/normoxia; for mRNA EXPRESSION (experimental condition) #4: #4 IL-10/hypoxia; for mRNA EXPRESSION (experimental condition) #5: #5 LPS/IFN/normoxia; for mRNA EXPRESSION (experimental condition) #6: #6 LPS/IFN/hypoxia. A digest of the protocol: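 Cultured macrophages were left untreated or given IL-10 or LPS + IFN, each at 100 ng/ml final, for 6 hr under normoxia or hypoxia (0.1% oxygen). Six conditions in total.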

Setting [2] is: Table 16, referenced to median of the gene over 6 conditions.
[3] abbreviates: Table 15, referenced to the median value of that gene throughout all 6 conditions.

B1: p1E1 (nucleic acid, listed as Homo Sapiens)
DNA: TTTTGGTCTGAGAATGATGGACATTTAGACACTGGCGCCAGGTTTGCGCTGGACCGGCGCACGCAGGGGTTGGGCGGACGAAAGACACACAGGTGGGCTACAGGTGTCACACGGCACCAGCCAGGGCCCGGGGTGGCTGGGGTGAGGATGGGTGTTTGGCCAGTGACCAGGAGTCAGGTCAAGTCCAGGTGGTCAGTGCCAGGGGTCCCAGGAGGGGAGGGCAGTGCATTAACCCTCCTGGTGTCCAGCGTCACCAGGCGGTCGTCACAGAAAGCAACCTCGGCCCGGGGCCG
modifications: EST array clone
Regarding B1, the “mRNA expression level, #1 HY 6 hr” value in data set [1] (cell type #1, hypoxia 6 hr) was found to be 1.31. Besides, the “mRNA expression level, #1 HY 18 hr” value in data set [1] (cell type #1, hypoxia 18 hr) is 2.14. Further, the “mRNA expression level, #1 NO” value in data set [1] (cell type #1, normoxia) stood at 2.91. Also, the “mRNA expression level, #2 HY 6 hr” value in data set [1] (cell type #2, hypoxia 6 hr) is on record as 6.21. Besides, the “mRNA expression level, #2 HY 18 hr” value in data set [1] (cell type #2, hypoxia 18 hr) is on record as 2.25. For the same molecule, the “mRNA expression level, #2 NO” value in data set [1] (cell type #2, normoxia) came out at 3.07. Moreover, the “mRNA expression level, #3 HY 6 hr” value in data set [1] (cell type #3, hypoxia 6 hr) came to 2.11. For the same molecule, in data set [1] (cell type #3, hypoxia 18 hr), the “mRNA expression level, #3 HY 18 hr” value turned out to be 1.28. In addition, the “mRNA expression level, #3 NO” value in data set [1] (cell type #3, normoxia) is listed as 1.08. The “mRNA expression level, #4 HY 6 hr” value in data set [1] (cell type #4, hypoxia 6 hr) worked out at 1.01. In addition, the “mRNA expression level, #4 HY 18 hr” value in data set [1] (cell type #4, hypoxia 18 hr) stood at 1.21. Besides, in data set [1] (cell type #4, normoxia), the “mRNA expression level, #4 NO” value is reported as 1.02. For the same molecule, the “mRNA expression level, #5 HY 6 hr” value in data set [1] (cell type #5, hypoxia 6 hr) is given as 0.80. Moreover, in data set [1] (cell type #5, normoxia), the “mRNA expression level, #5 NO” value worked out at 0.56. Moreover, in data set [1] (cell type #6, hypoxia 6 hr), the “mRNA expression level, #6 HY 6 hr” value came out at 1.16. Moreover, in data set [1] (cell type #6, hypoxia 18 hr), the “#6 HY 18 hr (mRNA expression level)” value turned out to be 1.25. The “mRNA expression level, #6 NO” value in data set [1] (cell type #6, normoxia) stood at 0.64. In addition, the “#7 HY 6 hr (mRNA expression level)” value in data set [1] (cell type #7, hypoxia 6 hr) came out at 0.42. For the same molecule, the “#7 HY 18 hr (mRNA expression level)” value in data set [1] (cell type #7, hypoxia 18 hr) turned out to be 0.29. Also, the “#7 NO (mRNA expression level)” value in data set [1] (cell type #7, normoxia) is 0.29. Also, the “#8 HY 6 hr (mRNA expression level)” value in data set [1] (cell type #8, hypoxia 6 hr) is 0.47. Besides, the “#8 HY 18 hr (mRNA expression level)” value in data set [1] (cell type #8, hypoxia 18 hr) turned out to be 0.91. Moreover, the “#8 NO (mRNA expression level)” value in data set [1] (cell type #8, normoxia) was 0.28. The “#9 HY 6 hr (mRNA expression level)” value in data set [1] (cell type #9, hypoxia 6 hr) stood at 1.24. Moreover, the “#9 HY 18 hr (mRNA expression level)” value in data set [1] (cell type #9, hypoxia 18 hr) came to 0.88. For the same molecule, the “#9 NO (mRNA expression level)” value in data set [1] (cell type #9, normoxia) is listed as 1.03. The “#10 HY 6 hr (mRNA expression level)” value in data set [1] (cell type #10, hypoxia 6 hr) was 0.61. In addition, the “#10 HY 18 hr (mRNA expression level)” value in data set [1] (cell type #10, hypoxia 18 hr) is given as 0.60. The “#10 NO (mRNA expression level)” value in data set [1] (cell type #10, normoxia) came to 0.32. Also, the “#11 HY 6 hr (mRNA expression level)” value in data set [1] (cell type #11, hypoxia 6 hr) is 4.39. Also, the “#11 HY 18 hr (mRNA expression level)” value in data set [1] (cell type #11, hypoxia 18 hr) is 2.33. Further, in data set [1] (cell type #11, normoxia), the “#11 NO (mRNA expression level)” value was determined as 3.03. Besides, the “HIGHEST FOLD CHANGE IN HYPOXIA (hr hypoxia + cell type)” value in data set [1] (6 hr cardiomyocyte) is listed as 3.24 (6 hr cardiomyocyte) fold. Moreover, in the data set on human macrophages (setting [2]), the “mRNA EXPRESSION (experimental condition) #1” value turned out to be 1.21, the “mRNA EXPRESSION (experimental condition) #2” value stood at 1.64, the “mRNA EXPRESSION (experimental condition) #3” value is on record as 0.94 and the “mRNA EXPRESSION (experimental condition) #4” value was found to be 1.35. In addition, in the data set with human macrophages (setting [2]), the “mRNA EXPRESSION (experimental condition) #5” value amounted to 0.51 and the “mRNA EXPRESSION (experimental condition) #6” value stood at 0.63.

B2: p1F6 (nucleic acid, listed as Homo Sapiens)
DNA: GTCCATCTTGCTGCTGTCCACTTTGGGTTCCATCTTGGGCTCCATCTTGCTCTCACGATTAAAAGCTTCTTTCCTGCTTTCCCCATTCCGACCATCATTTGCACCCCGGTTCTCCCCATGCCGGCCTGCGCTTCCTCCATGTCTGTTCTCCCCGTGCCGATGGCCATCAGTATGACGGCTGCTGCTTTCTGGATGGCGGTATCCATCTCCATGGCGACCACCATCTCCGTGACGTGGACTATCGCTATGCCGATTGCCAGTCTCTCCGTGACTGTGACGGCTGCTGCCCCGGTTCTCAGTATATCTCTCTCTTTTCCCGTTGCTGCCCCCAGTCCCTTCTCGGCTGTTATTCCCTGAAGCTGTGTTGTTGACTCCTTGGGCTCCGGCAGACGGGTAGGTCACAGGGGCACCACTGATGTTGCCAGTATTGCCAAAGCCTGGGATGCCCTTGGCGGCACTGGTGACGGGGCTGTCAGGACTGTTATGGCCCTGTTGTGCTGAGTTAGTTGGAACAGAATTCAAGCTCCCTGCACTAGTCCACCTGCCCCACTGCTTCTTCGCTTCTCTCTTGGAAAGTCCAGTCTCTCCTCGGCTTGCAATGGACCCCAACTGCTCCTGCGCCGCTGGTGTCTCCTGCACCTGCGCTGGTTCCTGCAAGTGCAAAGAGTGCAAATGCACCTCCTGCAAGAAGAGCTGCTGCTCCTGCTGCCCCGTGGGCTGTAGCAAGTGTGCCCAGGGCTGTGTTTGCAAAGGGGCGTCAGAGAAGTGCAGCTGCTGCGACTGATGCCAGGACAACCTTTCTCCCAGATGTAAACAGAGAGACATGTACAAACCTGGATTTTTTTTTTATACCACCTTGACCCATTTGCTACATTCCTTTTCCTGTGAAATATGTGAGTGATAATTAAACACTTTAGACCTGAAAAAAAAAAAAAAAAAAAAAAAAAAAAAAAAAAAAAAAAAAAAAAAAAAAAAAAAAAAAAAAAAAAAAAAAAAAAAAAAAAAAAAAAAAAAAAAAAAAAAAAAAAAAAAAAAAAAAAAAAAAAAAAAAAAAAAAAAAAAAAAAAAAAA
On to B2, for which the “HIGHEST FOLD CHANGE IN HYPOXIA (hr hypoxia + cell type)” value in data set [1] (18 hr monocyte) was 67.4 (18 hr monocyte) fold. In addition, in the data set on human macrophages (setting [3]), the “mRNA EXPRESSION (experimental condition) #1” value was determined as 0.44, the “mRNA EXPRESSION (experimental condition) #2” value turned out to be 1.08, the “mRNA EXPRESSION (experimental condition) #3” value is recorded as 0.47 and the “mRNA EXPRESSION (experimental condition) #4” value is on record as 1.06. In addition, in the data set with human macrophages (setting [3]), the “mRNA EXPRESSION (experimental condition) #5” value stood at 1.11 and the “mRNA EXPRESSION (experimental condition) #6” value was 2.47.
